For two substances, liquid beta gal assay value and fold β-galactosidase activity against the controls results are on record in paper PMC7089075.

The target of test [1] is N (two-hybrid positive control, pAS2 N and pGADT7 N). In words: two-hybrid.
Test [2] has as its target Salmo salar Mov10 (SsMov10) (Salmo salar). In words: two-hybrid.

In test [1], “N (two-hybrid positive control, pAS2 N and pGADT7 N) (natural protein)” gave a liquid beta gal assay value of 1.28.
As for “infectious salmon anaemia virus (ISAV) segment 8 open reading frame 2 protein (s8ORF2) (natural protein)”, the fold β-galactosidase activity against the controls in test [2] was 5 fold.
